Source: PMC11933697 (Nature Communications, 2025)
Where a chain is given by its changes, count along the chain named. Names and notes keep the numbering of the source. Read-outs that look alike come from different tables or passages of the source.

Tests used:
Test in all cases: ITC
NS1/MED25 ACID complex = target: T1, NS1/MED25 ACID complex (human respiratory syncytial virus …, UniProt P0DOE9 1-139; Q71SY5 389-543)
T1 sequence (looked up) 1: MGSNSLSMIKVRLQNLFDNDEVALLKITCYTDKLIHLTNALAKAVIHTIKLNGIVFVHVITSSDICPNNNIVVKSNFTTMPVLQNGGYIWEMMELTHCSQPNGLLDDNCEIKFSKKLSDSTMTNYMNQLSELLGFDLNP
T1 sequence (looked up) 2: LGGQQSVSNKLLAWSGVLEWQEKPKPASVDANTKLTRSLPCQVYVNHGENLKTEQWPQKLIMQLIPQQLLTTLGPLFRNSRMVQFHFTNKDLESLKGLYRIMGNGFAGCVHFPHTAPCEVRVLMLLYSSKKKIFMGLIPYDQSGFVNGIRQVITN

hMED25 ACID (389-543) [1] = target: T2, hMED25 ACID (389-543) (human, UniProt Q71SY5 389-543)
T2 sequence (looked up): T1 sequence (looked up) 2

hMED25 ACID (389-543) [2] = target: T2, hMED25 ACID (389-543); remark: listed apart in the source
MED25 ACID I541A/T542A = target: T3, MED25 ACID I541A/T542A (human, UniProt Q71SY5 389-543, I541A | T542A)
T3 sequence (looked up): T1 sequence (looked up) 2 with I153A, T154A

MED25 ACID I537A/R538A = target: T4, MED25 ACID I537A/R538A (human, UniProt Q71SY5 389-543, I537A | R538A)
T4 sequence (looked up): T1 sequence (looked up) 2 with I149A, R150A

B1: hATF3 bZIP (88-149) (domain or fragment, human, UniProt P18847 88-149, looked up)
chain: RKKRRRERNKIAAAKCRNKKKEKTECLQKESEKLESVNAELKAQIEELKNEKQHLIYMLNLH
NS1/MED25 ACID complex
  Kd: 3.08 ± 1.31 µM
hMED25 ACID (389-543) [1]
  Kd: 1.29 ± 0.321 µM

B2: NS1 E110A (natural protein, human respiratory syncytial virus (hRSV), UniProt P0DOE9 1-139, looked up)
chain: T1 sequence (looked up) 1 with E110A
hMED25 ACID (389-543) [2]
  Kd: 1.74 ± 0.37 µM

B3: NS1 N85A (natural protein, human respiratory syncytial virus (hRSV), UniProt P0DOE9 1-139, looked up)
chain: T1 sequence (looked up) 1 with N85A
hMED25 ACID (389-543) [2]
  Kd: 0.041 ± 0.008 µM

B4: NS1 Y125A (natural protein, human respiratory syncytial virus (hRSV), UniProt P0DOE9 1-139, looked up)
chain: T1 sequence (looked up) 1 with Y125A
hMED25 ACID (389-543) [2]
  Kd: 0.182 ± 0.02 µM

B5: hRSV NS1 (1-139) (natural protein, human respiratory syncytial virus (hRSV), UniProt P0DOE9 1-139, looked up)
chain: T1 sequence (looked up) 1
MED25 ACID I541A/T542A
  Kd: 0.116 ± 0.03 µM
MED25 ACID I537A/R538A
  Kd: 0.082 ± 0.01 µM
hMED25 ACID (389-543) [2]
  Kd: 0.041 ± 0.005 µM

B6: NS1 ΔDLNP (domain or fragment, human respiratory syncytial virus (hRSV), UniProt P0DOE9 1-135, looked up)
chain: MGSNSLSMIKVRLQNLFDNDEVALLKITCYTDKLIHLTNALAKAVIHTIKLNGIVFVHVITSSDICPNNNIVVKSNFTTMPVLQNGGYIWEMMELTHCSQPNGLLDDNCEIKFSKKLSDSTMTNYMNQLSELLGF
hMED25 ACID (389-543) [2]
  binding result: binds
